Assay results as given in patent publication US20040009502A1 (published 2004).

Columns and labels:
[1] = molecular target: T1, mLATS2b fused to the GAL4 DNA binding domain (pGBKT7-mLATS2b) (mouse, UniProt P04386 1-147 (Saccharomyces cerevisiae entry)); test: yeast two-hybrid (growth on quadruple dropout plates)
T1 construct: expressed in yeast AH109; also called clone 3-1; mLATS2/2b

[2] = molecular target: T2, mLATS2 fused to the GAL4 DNA binding domain (pGBKT7-mLATS2) (mouse, UniProt P04386 1-147; Q7TSJ6 1-1042); test: as above
T2 construct: Made by inserting the Bsm I-Xho I fragment of pcDNA3-mLATS2 into pGBKT7-mLATS2b; also called mLATS2/2b

[3] = molecular target: T3, mLATS2N96 fused to the GAL4 DNA binding domain (pGBKT7-mLATS2N96) (mouse, UniProt P04386 1-147 (Saccharomyces cerevisiae entry)); test: as above
T3 construct: Made by removing the Pst I fragment from pGBKT7-mLATS2b; also called N-terminal 96 amino acids of mLATS2/2b

[4] = molecular target: T1, mLATS2b fused to the GAL4 DNA binding …; test: yeast two-hybrid

B1: mRBT1C76 fused to the GAL4 activation domain (pGADT7-mRBT1C76) (other, UniProt P04386 768-881, looked up)
chain: ANFNQSGNIADSSLSFTFTNSSNGPNLITTQTNSQALSQPIASSNVHDNFMNNEITASKIDDGNNSKPLSPGWTDQTAYNAFGITTGMFNTTTMDDVYNYLFDDEDTPPNPKKEPQNEIVSQADPVFLEALSSRYLGDSGLDDFFLDIDTSAVEKDVALPPPEPPHSLFCSPGSWEWNELDHIMEIILGS
notes: PCR product encoding the C-terminal 76 amino acids of mRBT1 cloned into EcoR I and Sma I sites of pGADT7; also called C-terminal 76 amino acids of mRBT1
B1: no binding [1]; no binding [2].

B2: mRBT1N121 fused to the GAL4 activation domain (pGADT7-mRBT1N121) (other, mouse, UniProt Q9ERC3 1-121, looked up, not shown: large carriers)
chain: MGGLKRKHSDLEEEEEEEKWDWSPTALRSYQQALLRISLDKVQRSLGPRAPSLRRHVLIHNTLQQLQAAIRLAPAPALPPEPLFLGEEDFSLSTTIGSILRELDTSMDEMEPPLNPAASSS
notes: Made by removing the Xho I fragment from pGADT7-mRBT1
B2: binds [1]; no binding [3].

B3: mouse Replication Protein Binding Trans-Activator (mRBT1) fused to the GAL4 activation domain (pGADT7-mRBT1) (other, UniProt Q9ERC3 1-197, looked up, not shown: large carriers)
chain: MGGLKRKHSDLEEEEEEEKWDWSPTALRSYQQALLRISLDKVQRSLGPRAPSLRRHVLIHNTLQQLQAAIRLAPAPALPPEPLFLGEEDFSLSTTIGSILRELDTSMDEMEPPLNPAASSSPQNEIVSQADPVFLEALSSRYLGDSGLDDFFLDIDTSAVEKDVALPPPEPPHSLFCSPGSWEWNELDHIMEIILGS
B3: binds [4]; no binding [3].
